# Source: US20070192884A1
# Where “and” joins values, the source holds several entries; their conditions need not be identical. Identical values can stand only once.
# Columns and labels:
# [1] = biological target: TAT-038 as carried by human tumor cell lines (H1299, PC-3, K562, HL-60) (human) (UniProt P15144); assay: flow cytometry, PC3 human tumor cells
# [2] = biological target: TAT-038 as carried by human tumor cell lines (H1299, PC-3, K562, HL-60) (human) (UniProt P15144); assay: flow cytometry, K562 human tumor cells
# [3] = biological target: TAT-038 as carried by human tumor cell lines (H1299, PC-3, K562, HL-60) (human) (UniProt P15144); assay: flow cytometry, PC-3 human tumor cells
# [4] = biological target: TAT-038 as carried by human tumor cell lines (H1299, PC-3, K562, HL-60) (human) (UniProt P15144); assay: flow cytometry, H1299 human tumor cells
# [5] = biological target: TAT-038 as carried by human tumor cell lines (H1299, PC-3, K562, HL-60) (human) (UniProt P15144); assay: flow cytometry, HL-60 human tumor cells
# [6] = biological target: TAT-038 (full-length, cloned from human placenta cDNA, expressed from phCMV1-TAT-038 in stable 293G and BaF3 cells) (human) (UniProt P15144); assay: flow cytometry, 293G cells stably expressing TAT-038 (293G-ANPEP)
# [7] = biological target: TAT-038 (full-length, cloned from human placenta cDNA, expressed from phCMV1-TAT-038 in stable 293G and BaF3 cells) (human) (UniProt P15144); assay: flow cytometry, BaF3 cells stably expressing TAT-038 (BAF3 ANPEP)
substance,measurement,setting,value
"Mouse monoclonal antibody WM15 (BD Pharmingen, cat#555393)",geometric mean fluorescence,[1],125
same,geometric mean fluorescence,[2],7 and 9
same,geometric mean fluorescence,[3],47
same,geometric mean fluorescence,[4],4
same,geometric mean fluorescence,[5],23
same,geometric mean fluorescence,[6],221
same,geometric mean fluorescence,[7],59.3
